From PMC7817217

Target: bACE2-Rm fused with eGFP, expressed on the surface of HEK293T cells (Rhinolophus macrotis)
Assay: flow cytometry on cells

SARS-CoV-2 spike protein receptor binding domain (RBD) (from UniProt P0DTC2 319-541) (domain or fragment)
percent of cells stained positive: 34.5%
